Experimental data taken from publication PMC10482750, “Assessment of the roles of Spt5-nucleic acid contacts in promoter proximal pausing of RNA polymerase II” (The Journal of Biological Chemistry, 2023).
Changes are numbered by the printed parent chain. In names and notes the source's numbering stands.

B1: DRB sensitivity-inducing factor (DSIF), wild type (Spt5 and Spt4) (complex)
chain 1: not shown
chain 2: MAFDAIPKDLRGLRACLVCSLVKSFDQFETDGCENCEEFLRMKNNKDNVYDHTSNNFDGIIALTTPTDSWVAKWQRLSRFTRGIYAISVSGTLPQSTLRDMKNRGIVYKSRDRSQR
notes: Spt5, Drosophila; Spt4, Drosophila; No tag cleavage is described; A ~100-kDa Spt5 degradation product lacking the acidic N-terminal region is in each preparation; also called WT DSIF; source: E. coli Rosetta (DE3) pLysS, purified (Talon, anti-FLAG)
B2: DSIF NGN-Asp mutant (complex)
chain 1: not shown
chain 2: B1 chain 2
notes: Spt5, Drosophila, two basic residues of the NGN domain changed to aspartic acid; d numbers are Drosophila Spt5; Spt4, Drosophila; as in m2; source: E. coli Rosetta (DE3) pLysS, purified (Talon, anti-FLAG)
B3: DSIF Spt4 (R79E, R82E, K109E) mutant (complex)
chain 1: not shown
chain 2: B1 chain 2 with R79E, R82E, K109E
notes: Spt5, Drosophila, wild type; as in m2; Spt4, Drosophila, three basic residues changed to glutamic acid; also called Spt4 mutant; source: E. coli, purified as WT DSIF (Talon, anti-FLAG)

Target: T1, negative elongation factor (NELF): NELF-A, NELF-B, NELF-D, NELF-E (Drosophila, UniProt Q86NP2 1-1251; Q9Y113 1-594; Q24134 1-578; P92204 1-280)
T1 construct: NELF-A, Drosophila; NELF-B, Drosophila; NELF-D, Drosophila; NELF-E, Drosophila; No tag cleavage is described; source: Sf9, baculovirus, purified (Ni-NTA, anti-FLAG); copies: + + +
T1 sequence (Q86NP2 whole entry, chain 1 of 4): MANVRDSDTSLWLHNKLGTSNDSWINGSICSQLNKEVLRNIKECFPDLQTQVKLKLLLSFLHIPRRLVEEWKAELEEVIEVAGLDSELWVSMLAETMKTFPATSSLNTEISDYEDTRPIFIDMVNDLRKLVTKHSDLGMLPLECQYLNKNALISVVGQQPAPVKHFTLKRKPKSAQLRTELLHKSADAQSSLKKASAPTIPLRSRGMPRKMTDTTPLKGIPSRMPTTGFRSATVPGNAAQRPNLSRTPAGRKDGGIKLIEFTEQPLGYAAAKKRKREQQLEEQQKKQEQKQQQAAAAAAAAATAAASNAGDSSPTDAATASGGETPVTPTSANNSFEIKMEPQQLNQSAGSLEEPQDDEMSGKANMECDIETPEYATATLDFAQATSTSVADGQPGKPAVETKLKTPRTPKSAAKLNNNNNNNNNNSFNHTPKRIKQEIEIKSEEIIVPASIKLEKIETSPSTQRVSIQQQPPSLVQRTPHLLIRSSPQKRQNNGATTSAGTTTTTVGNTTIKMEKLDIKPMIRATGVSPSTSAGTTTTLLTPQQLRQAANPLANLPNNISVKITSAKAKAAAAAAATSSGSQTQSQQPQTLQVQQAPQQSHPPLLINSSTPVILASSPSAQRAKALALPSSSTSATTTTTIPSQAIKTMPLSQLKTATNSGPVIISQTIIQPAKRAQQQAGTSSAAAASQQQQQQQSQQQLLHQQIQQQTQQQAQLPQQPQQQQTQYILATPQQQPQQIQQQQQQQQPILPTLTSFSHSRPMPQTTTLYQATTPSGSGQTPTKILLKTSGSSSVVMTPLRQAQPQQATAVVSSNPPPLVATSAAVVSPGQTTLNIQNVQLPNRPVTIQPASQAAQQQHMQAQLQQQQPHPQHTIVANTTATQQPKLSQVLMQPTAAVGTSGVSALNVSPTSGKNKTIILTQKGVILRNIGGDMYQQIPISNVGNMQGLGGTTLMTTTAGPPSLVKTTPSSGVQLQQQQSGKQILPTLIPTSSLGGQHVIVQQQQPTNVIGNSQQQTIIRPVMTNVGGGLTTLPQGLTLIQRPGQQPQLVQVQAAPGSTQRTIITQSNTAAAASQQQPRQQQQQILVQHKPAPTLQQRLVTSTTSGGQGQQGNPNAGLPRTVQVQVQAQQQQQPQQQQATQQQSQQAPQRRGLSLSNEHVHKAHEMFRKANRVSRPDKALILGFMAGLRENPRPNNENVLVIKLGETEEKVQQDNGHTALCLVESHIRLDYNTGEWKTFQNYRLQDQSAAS
T1 sequence (Q9Y113 whole entry, chain 2 of 4): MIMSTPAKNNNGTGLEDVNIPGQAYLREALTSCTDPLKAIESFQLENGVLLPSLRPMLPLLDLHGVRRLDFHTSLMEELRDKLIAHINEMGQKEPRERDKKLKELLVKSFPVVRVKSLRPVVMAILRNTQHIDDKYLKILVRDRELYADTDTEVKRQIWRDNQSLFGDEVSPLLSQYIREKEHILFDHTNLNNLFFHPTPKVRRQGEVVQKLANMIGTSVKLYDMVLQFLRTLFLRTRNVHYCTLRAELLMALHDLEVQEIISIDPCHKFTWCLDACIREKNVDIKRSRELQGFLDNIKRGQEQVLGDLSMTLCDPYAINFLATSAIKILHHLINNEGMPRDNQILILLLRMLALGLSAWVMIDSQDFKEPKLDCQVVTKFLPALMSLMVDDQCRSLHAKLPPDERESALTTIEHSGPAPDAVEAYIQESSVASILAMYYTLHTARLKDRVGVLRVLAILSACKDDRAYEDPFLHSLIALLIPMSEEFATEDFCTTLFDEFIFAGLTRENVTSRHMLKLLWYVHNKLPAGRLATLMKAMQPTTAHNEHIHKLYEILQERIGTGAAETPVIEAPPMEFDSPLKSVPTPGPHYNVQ
T1 sequence (Q24134 whole entry, chain 3 of 4): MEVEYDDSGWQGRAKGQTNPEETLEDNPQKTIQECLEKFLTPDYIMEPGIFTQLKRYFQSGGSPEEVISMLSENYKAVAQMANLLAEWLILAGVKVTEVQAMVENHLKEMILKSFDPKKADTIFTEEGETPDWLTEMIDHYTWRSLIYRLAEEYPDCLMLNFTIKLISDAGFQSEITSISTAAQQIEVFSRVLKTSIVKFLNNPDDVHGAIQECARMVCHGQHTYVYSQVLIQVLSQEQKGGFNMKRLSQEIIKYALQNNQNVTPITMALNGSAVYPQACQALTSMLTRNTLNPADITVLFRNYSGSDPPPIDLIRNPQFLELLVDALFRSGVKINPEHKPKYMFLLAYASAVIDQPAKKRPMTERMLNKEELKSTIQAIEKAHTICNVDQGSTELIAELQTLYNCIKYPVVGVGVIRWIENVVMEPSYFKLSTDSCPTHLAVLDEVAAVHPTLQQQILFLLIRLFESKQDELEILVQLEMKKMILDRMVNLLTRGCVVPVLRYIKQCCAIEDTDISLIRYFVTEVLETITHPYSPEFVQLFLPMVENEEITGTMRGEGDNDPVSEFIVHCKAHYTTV
T1 sequence (P92204 whole entry, chain 4 of 4): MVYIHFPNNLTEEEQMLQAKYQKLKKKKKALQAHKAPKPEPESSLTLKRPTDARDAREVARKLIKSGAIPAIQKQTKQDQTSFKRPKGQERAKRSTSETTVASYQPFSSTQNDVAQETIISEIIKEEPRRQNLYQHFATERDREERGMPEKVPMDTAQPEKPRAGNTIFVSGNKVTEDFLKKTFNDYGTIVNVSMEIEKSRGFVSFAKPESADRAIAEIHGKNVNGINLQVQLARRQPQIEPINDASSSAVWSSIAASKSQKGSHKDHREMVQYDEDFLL
Experiment: native gel or EMSA; stalled Pol II elongation complexes plus purified WT or mutant DSIF and NELF together (supershift); room temperature; Torula yeast RNA added; 4% native polyacrylamide gel run at 4 °C
Conditions: both partners purified

| Binder | binding result |
| --- | --- |
| B1 | binds |
| B2 | binds |
| B3 | binds |
